Biological target: EsxT (M. abscessus), co-expressed with EsxU in M. smegmatis (Mycobacterium abscessus ATCC 19977)
Assay: SEC-MALS; purified EsxU/EsxT complex injected at 10 mg/mL on S200 5/150, 0.8 mL/min, 20 mM Tris pH 8.0, 300 mM NaCl, 5% glycerol

With “EsxU (M. abscessus), co-expressed with EsxT in M. smegmatis (natural protein)” the stoichiometry N was 1.

From publication PMC9401124
